Assay results reported in patent US20190177416A1 (NANOMAB TECHNOLOGY, published 2019).
Changes are numbered by the printed parent chain. Blank lines part the entries; values can stand above or below the binder they belong to.

Tests used:
[1] = molecular target: T1, human PD-L1 protein (coated antigen) (human, UniProt Q9NZQ7 19-238, limits assumed); assay: PE-ELISA, crude extract on coated PD-L1
T1 construct: Construct not described; also called PD-L1 antigen; antigenic protein PD-L1
Description: (1) From the cell culture dishes containing phage after 3-4 rounds of screening in Example 2, 1000 individual colonies were selected and inoculated into TB medium containing 100 μg/ml of ampicillin (1 liter of TB medium contains 2.3 g of potassium dihydrogen phosphate, 12.52 g of dipotassium hydrogen phosphate, 12 g of peptone, 24 g of yeast extract, 4 ml of glycerol), after growth to log phase, add a final concentration of […] of IPTG, culture at 28° C. overnight. (2) The crude antibody was obtained by the infiltration method, and the antibody was transferred to an antigen-coated ELISA plate and placed at room temperature for 1 hour. (3) Unbound antibody was washed away with PBST, and a mouse anti-HA tag antibody (anti-mouse anti-HA antibody, purchased from Beijing Kangwei Century Biotechnology Co., Ltd.) was added and placed at room temperature for 1 hour. (4) Unbound antibody was washed away with PBST, and anti-mouse alkaline phosphatase conjugate (goat anti-mouse alkaline phosphatase-labeled antibody, purchased from Amytech Co., Ltd.) was added and placed at room temperature for 1 hour. (5) Wash the unbound antibody with PBST, add alkaline phosphatase coloring solution, and read the absorbance at 405 nm on an ELISA apparatus. (6) When the OD value of the sample well is more than 3 times the OD value of the control well (Ratio+/−>3), it is judged as a positive clone hole. (7) The bacteria of the positive clone well were shaken in a LB liquid containing 100 μg per ml to extract a plasmid and perform sequencing.

[2] = molecular target: T2, PD-L2 (coated antigenic protein) (UniProt Q9BQ51 20-220, limits assumed); assay: ELISA, purified nanobody 10 ug/mL on coated PD-L2, anti-HA detection
T2 sequence (looked up): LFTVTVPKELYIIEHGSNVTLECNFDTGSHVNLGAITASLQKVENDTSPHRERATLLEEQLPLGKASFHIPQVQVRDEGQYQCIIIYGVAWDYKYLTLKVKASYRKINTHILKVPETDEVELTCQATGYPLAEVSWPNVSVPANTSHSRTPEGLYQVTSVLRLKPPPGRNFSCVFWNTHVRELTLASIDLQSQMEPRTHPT
Description: (§1) (1) Coated antigenic proteins PD-L1 and PD-L2: 0.5 μg per well (5 μg/mL, 100 μL), packaged NaHCO₃ (100 mM, pH8.2) was used as a blank control and overnight at 4° C. (2) Wash the cells three times with PBST the next day, add 200 μL of 1% BSA to block at room temperature for 2 hours. (3) Each purified nanobody was diluted to 10 μg/mL, and 100 pt of each of the purified nanobodies was incubated with the coated PD-L1, PD-L2 and the blank control group, and reacted at room temperature for 1 hour. (4) Unbound antibody was washed away with PBST, and 100 μL of mouse anti-HA tag antibody (1:2000 dilution) was added and placed at room temperature for 1 hour. (5) Unbound antibody was washed away with PBST, and anti-mouse alkaline phosphatase conjugate (1:2000 dilution) was added and placed at room temperature for 1 hour. (6) Wash the unbound antibody with PBST, add alkaline phosphatase coloring solution, and read the absorbance at 405 nm on an ELISA apparatus. The specificity of the nanobody was judged based on the absorption value.

[3] = molecular target: T1, human PD-L1 protein (coated antigen); assay: ELISA, purified nanobody 10 ug/mL on coated PD-L1, anti-HA detection
Description: as §1

[4] = molecular target: T1, human PD-L1 protein (coated antigen); assay: ELISA, purified nanobody 10 ug/mL, coated PD-L1 against coated PD-L2
Description: as §1

T1 sequence (Q9NZQ7 19-238 limits assumed): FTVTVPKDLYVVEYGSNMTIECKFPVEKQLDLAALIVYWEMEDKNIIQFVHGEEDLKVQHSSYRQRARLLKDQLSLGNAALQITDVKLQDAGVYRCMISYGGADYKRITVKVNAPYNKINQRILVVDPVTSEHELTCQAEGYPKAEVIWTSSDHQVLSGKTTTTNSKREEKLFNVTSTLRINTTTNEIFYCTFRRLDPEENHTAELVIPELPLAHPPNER

OD ratio (experimental group (A405 nm)/control group (A405 nm)) [1]: > 20
B5: SEQ ID NO 74 (VHH)
VHH: QVQLQESGGGSVQAGGSLRLSCAASGFTGSIYAMSWVRQAPGKGLEWVSTISSSGGRRFYADSVKGRFTISRDNAKNTLYLQLNSLKTEDTAMYYCARCSDIYCDNGASYRGQGTQVTVSS
notes: pMECS-expressed; also called VHH numbered 74

OD ratio (experimental group (A405 nm)/control group (A405 nm)) [1]: > 20
B11: SEQ ID NO 79 (VHH)
VHH: QVQLQESGGGLVQPGGSLRLSCAASGLPFSIIAMSWVRQAPGKGIEWVSTINSGGGTTHYADSVKGRFTISRDNAKNTLYLQLNSLRTEDTAVYYCRRCADIYCSGSGGWTGLGTQVTVSS
notes: pMECS-expressed; also called VHH numbered 79

OD ratio (experimental group (A405 nm)/control group (A405 nm)) [1]: > 20
B14: SEQ ID NO 73 (VHH)
VHH: B11 VHH with A23E, I45L, G54D, V93M, A100T, S107F, L113Q
notes: pMECS-expressed; also called VHH numbered 73

OD ratio (experimental group (A405 nm)/control group (A405 nm)) [1]: > 20
B16: SEQ ID NO 82 (VHH)
VHH: QVQLQESGGGSVQTGGSLRLSCTASTSIYSNNYMAWFSQAPGKGREGVAAVYIDDGRPYYADSVKGRFTISLDSAKNTVYLQMNSLKPEDTAMYYCAAAPGPLSRNYWYTSANYDYWGQGTQVTVSS
notes: pMECS-expressed; also called VHH numbered 82

OD ratio (experimental group (A405 nm)/control group (A405 nm)) [1]: > 20
B19: SEQ ID NO 80 (VHH)
VHH: B16 VHH with T23V, N106S
notes: pMECS-expressed; also called VHH numbered 80

OD ratio (experimental group (A405 nm)/control group (A405 nm)) [1]: > 20
B20: SEQ ID NO 83 (VHH)
VHH: B16 VHH with S11L, T23A, M34L, D54G, T69P, D73N, K76Q, T78K
notes: pMECS-expressed; also called VHH numbered 83

OD ratio (experimental group (A405 nm)/control group (A405 nm)) [1]: > 20
B21: SEQ ID NO 85 (VHH)
VHH: B16 VHH with T23A, D54A, G56D
notes: pMECS-expressed; also called VHH numbered 85

OD ratio (experimental group (A405 nm)/control group (A405 nm)) [1]: > 20
B22: SEQ ID NO 81 (VHH)
VHH: B16 VHH with T23A, P58T
notes: pMECS-expressed; also called VHH numbered 81

OD ratio (experimental group (A405 nm)/control group (A405 nm)) [1]: > 20
B23: SEQ ID NO 86 (VHH)
VHH: B16 VHH with E6D, T23A, N31I, I53T, D54G
notes: pMECS-expressed; also called VHH numbered 86

OD ratio (experimental group (A405 nm)/control group (A405 nm)) [1]: > 20
B24: SEQ ID NO 84 (VHH)
VHH: B16 VHH with T23A, Y29D, S38R, N106H, Q119P
notes: pMECS-expressed; also called VHH numbered 84

OD ratio (experimental group (A405 nm)/control group (A405 nm)) [1]: > 20
B25: SEQ ID NO 78 (VHH)
VHH: B16 VHH with T23A, I28L, N31Y, I53V, D54G, R105H
notes: pMECS-expressed; also called VHH numbered 78

Second part, the binder before the results:

B1: SEQ ID NO 34 (VHH)
VHH: QVQLQESGGGSVQAGGSLRLSCAASGYTRSLYCMGWFRQAPGREREGVAHVYTGDGSPYYADSVKGRFTISQDNGESTLYLQMNNLKPEDTAMYYCAAGTSALSRPYGPISYGYWYWGQGTQVTVSS
notes: pMECS-expressed; also called VHH numbered 34
OD ratio (experimental group (A405 nm)/control group (A405 nm)) [1]: > 20

B2: SEQ ID NO 20 (VHH)
VHH: B5 VHH with S11L, A14P
notes: pMECS-expressed; also called VHH numbered 20
OD ratio (experimental group (A405 nm)/control group (A405 nm)) [1]: > 20

B3: SEQ ID NO 61 (VHH)
VHH: QVQLQESGGGLVQPGGSLRLSCAASGFDFSSRAMSWVRQAPGKGLEWVSTINSGGGSRYYADSVKGRFTTSRDNAKNTLALQLNSLKTEDTAMYYCARCSDIYCDNGAWYRGQGTQVTVSS
notes: pMECS-expressed; also called VHH numbered 61
OD ratio (experimental group (A405 nm)/control group (A405 nm)) [1]: > 20

B4: SEQ ID NO 45 (VHH)
VHH: B5 VHH with S11L, A14P, G29F, Y32K, S52D, S54G, F59Y, N84S, Y95F, D105Y
notes: pMECS-expressed; also called VHH numbered 45
OD ratio (experimental group (A405 nm)/control group (A405 nm)) [1]: > 20

B6: SEQ ID NO 58 (VHH)
VHH: QVQLQESGGGLVQPGGSLRLSCALSGFTSTIYAMSWVRQAPGKGLEWVSTINSDGGYRYYADSVKGRFTISRDNAKNTLYLQLNSPKTEDTAMYYCARCSDIYCYNGPSYRGQGTQVTVSS
notes: pMECS-expressed; also called VHH numbered 58
OD ratio (experimental group (A405 nm)/control group (A405 nm)) [1]: > 20

B7: SEQ ID NO 70 (VHH)
VHH: B3 VHH with D28T, S31I, G56D, T70I, L79M, A80Y, A97V, D105Y, W109S
notes: pMECS-expressed; also called VHH numbered 70
OD ratio (experimental group (A405 nm)/control group (A405 nm)) [1]: > 20

B8: SEQ ID NO 10 (VHH)
VHH: QVQLQESGGGSVQAGGSLRLSCTAPGFTSKTCAMRWYRQAPGKEREFVSAISTVGTTTYADSVKGRFIISKDEAKDTVYLQINSLKPEDTAMYSCKTFACRHCIGQSCRTEPDYWGQGTQVTVSS
notes: pMECS-expressed; also called anti-PD-L1 nanobody No. 10; VHH numbered 10
ELISA absorbance (A405 nm) [2]: 0.117 A405 nm | ELISA absorbance (A405 nm) [3]: 3.34 A405 nm | OD ratio (experimental group (A405 nm)/control group (A405 nm)) [1]: > 20 | OD ratio (PD-L1/PD-L2) [4]: 28.6

B9: SEQ ID NO 71 (VHH)
VHH: QVQLQESGGGLVQPGGSLRLSCAASGFTFSSYDMSWVRQAPGKGIEWVSVINSGGSNTDYADSVKGRFTISRDNAKNTLYLQMNSLKTEDTAVYYCATAWMGYSDYLDGIARGQGTQVTVSS
notes: pMECS-expressed; also called VHH numbered 71
OD ratio (experimental group (A405 nm)/control group (A405 nm)) [1]: > 20

B10: SEQ ID NO 50 (VHH)
VHH: QVQLQESGGGLVQPGGSLRLSCIASGFTFSIMAMSWVRQAPGKGLEWVSTINSDGGKTYYADSVKGRFTISRDNAKNTLYLQLNSLRTEDMAMYYCRRCADIYCSGSGGWTGQGTQVTVSS
notes: pMECS-expressed; also called VHH numbered 50
OD ratio (experimental group (A405 nm)/control group (A405 nm)) [1]: > 20

B12: SEQ ID NO 65 (VHH)
VHH: B10 VHH with I23A, M32L, V48I, S53N, D54S, K57T, Y59F, M91T, A100T, G106L
notes: pMECS-expressed; also called VHH numbered 65
OD ratio (experimental group (A405 nm)/control group (A405 nm)) [1]: > 20

B13: SEQ ID NO 72 (VHH)
VHH: B11 VHH with A23E, I45L, G54D, V93M, A100T, L113Q
notes: pMECS-expressed; also called VHH numbered 72
OD ratio (experimental group (A405 nm)/control group (A405 nm)) [1]: > 20

B15: SEQ ID NO 3 (VHH)
VHH: B16 VHH with T23A, I28L, N31Y, I53V, D54G, T78A, R105H
notes: pMECS-expressed; also called anti-PD-L1 nanobody No. 3; VHH numbered 3
ELISA absorbance (A405 nm) [2]: 0.112 A405 nm | ELISA absorbance (A405 nm) [3]: 2.36 A405 nm | OD ratio (experimental group (A405 nm)/control group (A405 nm)) [1]: > 20 | OD ratio (PD-L1/PD-L2) [4]: 21

B17: SEQ ID NO 7 (VHH)
VHH: B16 VHH with T23A, A24C, N31T, D54G
notes: pMECS-expressed; also called anti-PD-L1 nanobody No. 7; VHH numbered 7
ELISA absorbance (A405 nm) [2]: 0.119 A405 nm | ELISA absorbance (A405 nm) [3]: 3.51 A405 nm | OD ratio (experimental group (A405 nm)/control group (A405 nm)) [1]: > 20 | OD ratio (PD-L1/PD-L2) [4]: 29.5

B18: SEQ ID NO 4 (VHH)
VHH: B16 VHH with T23A, T26P, N31A, D54G, S104G, R105H
notes: pMECS-expressed; also called anti-PD-L1 nanobody No. 4; VHH numbered 4
ELISA absorbance (A405 nm) [2]: 0.137 A405 nm | ELISA absorbance (A405 nm) [3]: 3.51 A405 nm | OD ratio (experimental group (A405 nm)/control group (A405 nm)) [1]: > 20 | OD ratio (PD-L1/PD-L2) [4]: 25.6

B26: SEQ ID NO 18 (VHH)
VHH: QVQLQESGGGSVQAGGSLRLSCAASGYTYSSDGMGWFRQTPGKEREGVAAISPTGRRTEYADSVKGRFTISRDNNKNMLSLQMNSLKPEDTGMYYCAREGSWSFSLANSAVRSWGQGTQVTVSS
notes: pMECS-expressed; also called VHH numbered 18
OD ratio (experimental group (A405 nm)/control group (A405 nm)) [1]: > 20
